Measured values: patent US20060147922

Test system: chk2, endogenous (HEK 293 and MCF-7 cell extracts)
Sequence (chain, as listed by the source): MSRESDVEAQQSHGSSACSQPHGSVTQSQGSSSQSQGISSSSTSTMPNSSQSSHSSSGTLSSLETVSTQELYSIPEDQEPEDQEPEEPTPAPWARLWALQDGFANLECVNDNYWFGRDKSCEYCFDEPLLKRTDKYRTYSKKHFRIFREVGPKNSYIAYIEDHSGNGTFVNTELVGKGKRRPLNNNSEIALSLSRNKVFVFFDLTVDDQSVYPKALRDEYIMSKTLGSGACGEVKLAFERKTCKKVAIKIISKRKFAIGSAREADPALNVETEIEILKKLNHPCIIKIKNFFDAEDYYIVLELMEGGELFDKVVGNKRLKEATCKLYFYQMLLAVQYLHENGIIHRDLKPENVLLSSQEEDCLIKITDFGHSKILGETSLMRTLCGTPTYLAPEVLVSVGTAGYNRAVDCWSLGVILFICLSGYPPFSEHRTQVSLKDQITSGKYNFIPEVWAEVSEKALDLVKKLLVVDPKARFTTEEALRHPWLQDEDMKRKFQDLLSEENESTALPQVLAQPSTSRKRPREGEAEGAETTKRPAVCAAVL

Substance: EDD protein, full length (aa 1-2799)
- CHK2 kinase activity towards a GST-cdc25C substrate post-IR in the presence and absence of EDD: activation of CHK2 was delayed in cells lacking EDD and these cells were impaired in their ability to reach maximal CHK2 kinase activity
- DNA damage-induced phosphorylation of CHK2 on T68 after EDD depletion by RNA interference: considerably diminished compared to control cells
